Data: US20180313827A1

Tests used:
[1] = target: Ddx4_N1_1 (disordered N-terminus of Ddx4 protein, forming Ddx4N1 membraneless organelles / proteinaceous phase) (Homo sapiens (Human)) (UniProt Q9NQI0); experiment: confocal fluorescence microscopy, partitioning inside vs outside Ddx4N1 organelles in vitro; 5 µM, 150 mM NaCl
[2] = target: Ddx4_N1_1 (disordered N-terminus of Ddx4 protein, forming Ddx4N1 membraneless organelles / proteinaceous phase) (Homo sapiens (Human)) (UniProt Q9NQI0); experiment: confocal fluorescence microscopy, partitioning inside vs outside Ddx4N1 organelles in vitro; 11.8 µM, 175 mM NaCl

Chain of UniProt Q9NQI0 (Q9NQI0 other isoform, or with tags, fused parts or gaps limits assumed): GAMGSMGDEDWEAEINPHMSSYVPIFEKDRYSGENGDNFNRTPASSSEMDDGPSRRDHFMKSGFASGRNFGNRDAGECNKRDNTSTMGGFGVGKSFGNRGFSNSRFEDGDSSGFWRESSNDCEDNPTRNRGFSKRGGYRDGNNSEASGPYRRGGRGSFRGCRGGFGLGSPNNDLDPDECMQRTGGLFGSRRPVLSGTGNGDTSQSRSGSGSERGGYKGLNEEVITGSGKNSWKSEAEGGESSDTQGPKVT

ΔGpart (partition free energy into Ddx4N1 organelles) [1] [kJmol^-1]	ΔGpart (partition free energy into Ddx4N1 organelles) [2] [kJmol^-1]	Substance
1.6		GFP^-30 (acidic GFP, -30 surface charge)
	-7.8	aB_GFP (alphaB-crystallin fused to GFP, oligomer)
